Bridges are numbered along the chain shown (N, C = ends). Where no end group is shown, it is not given here.
B1: Cyclopeptide-GGS-K(X) of ACHLNYPGYCG (Seq. 1) (peptide)
peptide: ACHLNYPGYCGGGSK
modifications: disulfide 2-10 (inferred); also: C-terminal Lys carries an unspecified functional group X for microarray attachment
notes: Microarray construct; also called parental peptide (cyclic, immobilized through C-terminus)
B2: Cyclopeptide-GGS-K(X) of ACHYSYPGVCG (Seq. 2) (peptide)
peptide: ACHYSYPGVCGGGSK
modifications: disulfide 2-10 (inferred); also: C-terminal Lys carries an unspecified functional group X for microarray attachment
notes: as for B1
B3: Cyclopeptide-GGS-K(X) of ACHLGYPGRCG (Seq. 3) (peptide)
peptide: ACHLGYPGRCGGGSK
modifications: disulfide 2-10 (inferred); also: C-terminal Lys carries an unspecified functional group X for microarray attachment
notes: as for B1

Molecular target: T1, IMAB362
T1 construct: It is the target of the phage display selection; also called IMAB362 antibody
T1 sequence (VH, as listed by the source limits assumed, chain 1 of 2): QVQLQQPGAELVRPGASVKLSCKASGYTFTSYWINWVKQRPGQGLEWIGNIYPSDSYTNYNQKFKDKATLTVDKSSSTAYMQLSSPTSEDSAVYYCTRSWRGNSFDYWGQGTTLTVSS
T1 sequence (VL, as listed by the source limits assumed, chain 2 of 2): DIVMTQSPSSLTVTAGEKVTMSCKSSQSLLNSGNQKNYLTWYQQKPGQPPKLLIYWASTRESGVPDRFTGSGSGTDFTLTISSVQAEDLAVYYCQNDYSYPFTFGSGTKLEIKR
Assay: peptide microarray, 1 µg/ml IMAB362, fluorescence signal; this construct is the reference
Method: Washing steps were performed prior every incubation step with 0.1% Tween-20 in 1×TBS. After the final incubation step the microarrays were washed (0.05% Tween-20 in 0.1×SSC) and dried in a stream of nitrogen. Each microarray was scanned using a GenePix Autoloader 4200AL (Molecular Devices, Pixel size: 10 μm). Signal intensities were evaluated using GenePix Pro 7.0 analysis software (Molecular Devices). For each peptide, the mean of the three triplicates was calculated.

% Affinity compared to hit peptide, 100%:
B1, B2, B3
